Earlier results, collected in paper PMC10581250.

Key:
[1] = target: KGD (Mycobacterium smegmatis) (UniProt A1KI36)
[2] = target: OdhA (E1oE2o subunit) (Corynebacterium glutamicum) (UniProt Q8NRC3)
[3] = target: OdhA (Corynebacterium glutamicum) (UniProt Q8NRC3); assay: surface plasmon resonance

Chain of UniProt A1KI36 (A1KI36 whole entry): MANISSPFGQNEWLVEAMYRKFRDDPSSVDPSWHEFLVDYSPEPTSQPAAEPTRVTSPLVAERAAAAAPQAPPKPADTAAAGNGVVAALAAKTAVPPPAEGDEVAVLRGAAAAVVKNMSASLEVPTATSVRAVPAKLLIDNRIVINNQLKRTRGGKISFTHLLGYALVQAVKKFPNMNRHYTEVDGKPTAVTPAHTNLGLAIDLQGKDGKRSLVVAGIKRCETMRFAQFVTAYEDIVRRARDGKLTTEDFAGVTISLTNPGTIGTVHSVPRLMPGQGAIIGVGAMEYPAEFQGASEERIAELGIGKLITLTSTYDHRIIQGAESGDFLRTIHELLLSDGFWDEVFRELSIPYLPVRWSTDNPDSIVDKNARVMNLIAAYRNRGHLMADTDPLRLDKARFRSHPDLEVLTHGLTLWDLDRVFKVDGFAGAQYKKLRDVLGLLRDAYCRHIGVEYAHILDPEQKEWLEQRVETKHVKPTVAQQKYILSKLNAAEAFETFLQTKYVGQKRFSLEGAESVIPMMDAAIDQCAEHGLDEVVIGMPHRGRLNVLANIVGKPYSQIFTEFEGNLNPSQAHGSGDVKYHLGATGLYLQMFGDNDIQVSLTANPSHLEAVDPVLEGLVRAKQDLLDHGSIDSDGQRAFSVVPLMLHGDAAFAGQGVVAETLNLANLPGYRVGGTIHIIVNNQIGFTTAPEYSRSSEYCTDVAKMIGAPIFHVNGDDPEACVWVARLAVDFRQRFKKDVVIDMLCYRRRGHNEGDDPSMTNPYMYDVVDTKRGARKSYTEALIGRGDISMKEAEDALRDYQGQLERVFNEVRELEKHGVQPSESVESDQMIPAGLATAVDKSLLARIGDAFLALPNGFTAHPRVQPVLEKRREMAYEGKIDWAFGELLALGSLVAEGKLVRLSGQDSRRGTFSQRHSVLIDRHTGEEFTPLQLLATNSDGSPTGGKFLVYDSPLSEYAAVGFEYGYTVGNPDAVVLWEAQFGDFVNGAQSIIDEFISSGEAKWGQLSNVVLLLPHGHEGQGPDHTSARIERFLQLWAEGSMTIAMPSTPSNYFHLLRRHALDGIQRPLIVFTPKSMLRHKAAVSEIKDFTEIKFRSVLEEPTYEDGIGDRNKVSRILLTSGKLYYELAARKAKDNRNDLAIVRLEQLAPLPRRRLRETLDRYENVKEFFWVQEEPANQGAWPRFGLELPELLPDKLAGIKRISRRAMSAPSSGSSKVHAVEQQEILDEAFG

## GarA (from UniProt P9WJA9)
[1]
  Kd: 1920 nM

## OdhI (from UniProt Q8NQJ3)
[2]
  Ki: 2.4 nM
[3]
  Kd: 13.8 nM
